Source: the DeepSol protein solubility set

Experiment: soluble on expression in E. coli; label from the status in PepcDB or PDB records

Sequence	soluble on expression in E. coli
KGGWFGKHRGQGGSNPKFENIAEGLRALLARSHVERTTDEGTWVAGVFVYGGSKTSLYNLRRGTALAIPQCRLTPLSRLPFGMAPGPGPQPGPLRESIVCYFMVFLQTHIFAEVLKDAIKDLVMTKPAPTCNIRVTVCSFDDGVDLP	soluble
KGNEFEDYCLKRELLMGIFEMGWEKPSPIQEESIPIALSGRDILARAKNGTGKSGAYLIPLLERLDLKKDNIQAMVIVPTRELALQVSQICIQVSKHMGGAKVMATTGGTNLRDDIMRLDDTVHVVIATPGRILDLIKKGVAKVDHVQMIVLDEADKLLSQDFVQIMEDIILTLPKNRQILLYSATFPLSVQKFMNSHLEKPYEIN	soluble
KKDFTWKTNLTFSLNRNKIVDLYGDKKDDLANRWFIGQPMKVIYDLEKVGIWQTEDKELAAKYGQVPGHIRVADLDENYVIDERDYKVLGSPSPDWTAGMTNTFTYKNWDLSFYMYARIGGTYNDDFTYMFTAWDNEHWNKLNVKYWTPENHSNEYQQIGAQSYHTQVLGKISGSFLKIQNITLGYTLPENWMKKMKMKNARAYINVQNPFTFTDYLGPDPETIGEDVYKSLSLYPMTFTFGVNLTF	not soluble
KKDFTWSSTVTFTANKEKIKSLIEGQDMMFNAKKGDMVFKVGEGVGSFYRYKVLGIWQYSEKETAALFGCEPGDIKLDLPSVKKDGNGYYYMNPEGERVDITAENPYGVRADYDRQVIGRNTPDWTLGFKNNFRYKDFDLSVFLYARWGQMMNYGSVIGKYSPNPDYNIPTYFTYYDKTIEADQDVLFYAIDKSKDRSAYEGYDSMYYVDGSFFKLKNVTLGYTLPGKLTKRFGISNLRVYATMTNLFTYSPNKYVKNYDPEMNGSINFPLSRDCIFGLNLTF	not soluble
KKIIHELLDDILFFETAPTIHKVILHGKNRQVEFYGKLKSIEKMLDESFYRCHRSYIVNKKNIHELDTTKGVVKMSNGENCYASSKLIKSLSL	not soluble
KKVCACPKILKPVCGSDGRTYANSCIARCNGVSIKSEGSCPTGI	soluble
KKVVFFGVGAVGATFAEQFFNSKYDFKILCDNERKKRYLEEGFIINGKRYDFDYVTKDEYKQEADFIIIGLKYNNLKENIKELDGLVGKNTVIMSLLNGVDSEEIIGERFGIEKMVYSYVTNIDAKKINNNIIHTTNGIIVFGNKDNSEDRKTNIITEVFDDVNIEYTLSKDIQRDMWWKYMVNI	not soluble
KLEAMKEAEGKEPSETDIKPKRIEEPVLKGFAAPAQTAPAPVSKPAPVAKKKEVEQEAKPGLFSRLFKALGSFLFGGSEEVKEEPKQEEKKSNRDNKRNKRDRNDRRRSNQRDNREGRENRDNRRRRKPREEQANEQNEAQQPANKQQPNRSQKRKPKPQQAEKAQEPKANAKVAEKGLQLAAEARSEVKPEENKAKANAKTEKVKERRQRRKLNKSVRVKDQLADEQVEETAVKAIEPVESQVDQAVDTAADAQQDNKQGESKQRRNRRSPRHLRASGQRRRRGRDRRPNPFRLRKGGVASPEMAMGKVMPRYIPKPAPKKEERVQEETVVAIATVPAMQGGFACPEMAMGKVIIRREQPAVAEAPVVEPKVQETVEAKAESPIVEAVAPEKAEPVAVDQAPVEPIVEVAEAPVAEATTETVVEEAPVQEPVVAETVEEAATEVAVETPVAAPEMKAEVINVVAKPRASAPMTKAPGPQELREIEVAAAPFKAERYQAKGAGSQVATNRASAAMTKPNFN	not soluble
KLKSVEKKLSESESRLELALEAANMGTWSWNIKRNEIFWSEQVLYIFGIKPEEFKGDFESYLNLIPSNERVQVEEYITNVLAKLQKEFFFDHSIQTPSGVKKRVYCKGKLYADHAGMPDSMTGVVLDVT	not soluble
KMAHIGSWKWDIVTGELYWSDELYLIFGLDPQEFRPAYNSFFNYIHPGDRDFVDNAIKKALNGEQLYDNDHRIISADGEERIVHSHGEVIFDEKNTPVRMRGTLQDIT	not soluble
KNYDLIFGDSNTKKYYAQFAKEHKTHLYHQILQSNDEQFRFVENDQTVTSQTPFKS	not soluble
KRMYNREKLRKLFDKEETPEVTGLKDNQERFFTYSIRAAHMNINTKSNIKVLKNGEETFPDIFKAMRKAESYIHIEYYMFKSDMLGRGMMDIMMEKARQGVEVRFLYDAAGSMKLARRDIMRMKQAGVDIVPFSPLKYGFFNQKLNFRNHRKIVIIDGKTGFVGGLNVGKEYISRDPYIGFWRDTHLRLEGEIVQTLHAIFMLDWEYVSNEVLIDQEEYNTPVPVEGGGIYQIVATGPDMKESMSDLYYEMISSAQKSIWIATPYFVPNESIRTALKAAATKGVEVRVMVPEKNDSFLTQYASRSYFPELLLEGIEVYSYQKGFMHQKVMIIDGDLASVGTANMDMRSFQLNFEVNVFFTDAEAIRTLEAHFEEDMQESEKLSPVGFYKRGVADR	not soluble
KRRLEVKGEVNSITVYDDFAHHPEAILATLTALRDKVGGGVRILAVLEPRSNTMKMGVHKDDIAPALGRADAVFMLQPEQLSWEVADIANQCVQPAYWNANLDRLVDMIVAKAQPTDHILVMSNGSFGGIHQKILDKLKLK	not soluble
KVIAGLYQRAFQHLSEAVQAAEEEAQPPSWSCGPAAGVIDAYMTLADFCDQQLRKEEENASVIDSAELQAYPALVVEKMLKALKLNSNEARLKFPRLLQIIERYPEETLSLMTKEISSVPCWQFISWISHMVALLDKDQAVAVQHSVEEITDNYPQAIVYPFIISSESYSFKDTSTGHKNKEFVARIKSKLDQGGVIQDFINALDQLSNPELLFKDWSNDVRAELAKTPVNKKNIEKMYERMYAALGDPKAPGLGAFRRKFIQTFGKEFDKHFGKGGSKLLRMKLSDFNDITNMLLLKMNKDSKPPGNLKECSPWMSDFKVEFLRNELEIPGQYDGRGKPLPEYHVRIAGFDERVTVMASLRRPKRIIIRGHDEREHPFLVKGGEDLRQDQRVEQLFQVMNGILAQDSACSQRALQLRTYSVVPMTSSDPRAPPCEYKDWLTKMSGKHDVGAYMLMYKGANRTETVTSFRKRESKVPADLLKRAFVRMSTSPEAFLALRSHFASSHALICISHWILGIGDRHLNNFMVAMETGGVIGIDFGHAFGSATQFLPVPELMPFRLTRQFINLMLPMKETGLMYSIMVHALRAFRSDPGLLTNTMDVFVKEPSFDWKNFEQKMLKKGGSWIQEINVAEKNWYPRQKICYAKRKLAGANPAVITCDELLLGHEKAPAFRDYVAVARGSKDHNIRAQEPESGLSEETQVKCLMDQATDPNILGRTWEGWEPWM	soluble
KVNNIMKKLLSSMILIWGGLISFSNNITGPRHRIEISAGFINDRQNATMGNNIFISNSISYIPEWKIQVNKKFDVTFGPKVVLNFSNFITVSNGTAKAASSSNNANPVTITPSLILGGELDFNYSVKENLKIYTGLEVGTGIGFQISTVGSNVQNPEFRTSSKIALGVKINEKYNIAIYTADIKGLLGLEAGYTF	not soluble
KYSLLEIGLKKDNGSSETIKLKREAIKFENNTVKSYIIKDAKKIGYISIPSFYSDDSNPNALGAANELSKEILKLKNENIEGLIIDLRNNGGGSLYEAVGMSGLFIDIGPLFYVLERSGKATLTKDMNRGTVYDGPLCIMVNGYSASASEIFSAAMQDNHRALIVGEQTYGKATGQSISQLDTTKSISTFSATDNMGATKITEIKLYRTSGFSYQGKGVTPDIILPYL	not soluble
LADSSDVTEVENYMKANYDVPNNVYFGKAEGKNVIYVSLESLQSFIIDYKIDGKEVTPFLNKLAHDNETFYFDNFFHQTGQGKTSDAEFMMENSLYPLAQGSVFVNKAQNTLQSVPAILKSKNYTSATFHGNTQTFWNRNEMYKAEGIDKFFDSAYYDMNEENTKNYGMKDKPFFKESMPLLESLPQPFYTKFITLSNHFPFGMDEGDTDFPAGDFGDSVVDNYFQSAHYLDQSIEQFFNDLKKDGLYDKSIIVMYGDHYGISENHNKAMAKVLGKDEITDYDNAQLQRVPLFIHAAGVKGEKVHKYAGDVDVAPTILHLLGVDTKDYLMSGSDILSKEHREVIPFRNGDFISPKYTKISGKYYDTKTGKELDESEVDKSEDSLVKKELEMSDKIINGDLLRFYEPKGFKKVNPSDYDYTKHDEDSSETSKDNEDK	soluble
LAELFEKAAAHLQGLIQVASREQLLYLYARYKQVKVGNCNTPKPSFFDFEGKQKWEAWKALGDSSPSQAMQEYIAVVKKLDPGWNPQIPEKKGKEA	soluble
LDDKTGLGTILNPQATYFDYQATQSGAGSFNYTVKGDNLTATSQIVLAVNAGETPGNNIPVADNITLSTFNNVDAIIDLSAYITDADGDTLRINKLVSASNRFTLNGFQVTFAPDGFVGVDQAVYSVDDGRGGYALAYIVVTSNDANPPAPNTAPVAKDDSLSMDVAKQSVLNINLSGLISDADGDSLKVVTLYSHNDRAVLKENASVDYTPGNFRGVDQFTYLVSDGKGGYDLGTVTVTVGDSTPPTPPTPSLVAYQQAFVLDVDQLQTIDVTQSVTSEHLDAWSLTTVQDSTNLGVVSAKTATTFNYLAQTPGVAQIDYSVQGGSLSANSTITVAINAPVTPDNHRPEAQDTQLETLNNASKTIDLQGKISDVDGDTLSITLHGSARFSLNGTQVTFTPNGFVGLDQAVYSVEDGKGGYALANIVAISEDANPPVPNMAPTANDAQFTLDVAKNVTFNIDLVAQRLIADADGDALSIAHIYTANNRATKQGATGITYTPGAFRGVDQFTYVITDGKDGYAINAITVVVNDSTPANKIPTAGPVTAKMLHNDPAITISVNSAVSDADGDTLKIVSISGALGQASINPANALEMLYEPKGFVGTDRFVYVVSDDNGGYAMGEVTVTVTDSNPTAPVANTVQENTLLDTPINIDLSAYISDKETETANLVISNVTNATSPAVATLSGQTVIYTPNGFTGNDILTYTVTDGRH	not soluble
LDINKPENVISKEVSFLGEALPKSIKSECPNESFTLDDKDVVKSTSGSVQNEPLKNINENIYDPKLKKALDKSKPEILIYHSHTTEAYKPYPADSLNSTQNVCAVGDELVKELGEKYGIYAINDKTVHNVVDYNKSYTRSGETLDKYLKQYGDFKMIIDMHRDSDVPKSKVTARINGEDVAKFMFVMTRKNPHFDKNMALVNGLVSICNKDFPGIFNGIYYYDYGINYYNQQKSNNAFLLEVGSDINTIDEAKGTSKYLARIIAEYLNGKK	not soluble
LDTTRESIRIGDNLGNVINDPISSREIETQNERDNDLINRYYRPDELEKVKVVDFKPIILNLDELDNDELIMALEEKPAYSRTGVLLSRIDNIRMRIAESAGRLKKDVVRSEESERPAFESERSSSPTTISFN	not soluble
LEADKCKEREEKIILVSSANEIDVRPCPLNPNEHKGTITWYKDDSKTPVSTEQASRIHQHKEKLWFVPAKVEDSGHYYCVVRNSSYCLRIKISAKFVENEPNLCYNAQAIFKQKLPVAGDGGLVCPYMEFFKNENNELPKLQWYKDCKPLLLDNIHFSGVKDRLIVMNVAEKHRGNYTCHASYTYLGKQYPITRVIEFITLEENKPTRPVIVSPANETMEVDLGSQIQLICNVTGQLSDIAYWKWNGSVIDEDDPVLGEDYYSVENPANKRRSTLITVLNISEIESRFYKHPFTCFAKNTHGIDAAYIQLIYPVTNFQK	soluble
LGGNANAGLEVLKDATAQAIADAKALLAAGKVSVKIQEPCDEILFSRAKVWNGEKWACVTIVGGHTNIVHIETHNGVVFTQQACVTEGEQESPLTVLSRTTLAEILKFVNEVPFAAIRFILDSAKLNCALSQEGLSGNWGLHIGATLEKQCARGLLAKDLSSSIVIRTSAASDARMGGATLPAMSNSGSGNQGITATMPVVVVAEHFGADDERLARALMLSHLSAIYIHNQLPR	not soluble
LGKFSQTCYNSAIQGSVLTSTCERTNGGYNTSSIDLNSVIAAVDGSLKWPSNFIEACRNTQLAGSSELAAECKTAAGQFVSTKINLDDHIANIDGTLKYE	soluble
LGLERDVSRAVELLERLQRSGELPPQKLQALQRVLQSRFCSAIREVYEQLYDTLDIT	soluble
